The values that follow come from patent US20250092426, “CAS ENDONUCLEASES AND RELATED METHODS” (Flagship Pioneering Innovations VII, LLC, published 2025).

This series deals with T1, CasEnd-14 (synthetic construct).
T1 chain: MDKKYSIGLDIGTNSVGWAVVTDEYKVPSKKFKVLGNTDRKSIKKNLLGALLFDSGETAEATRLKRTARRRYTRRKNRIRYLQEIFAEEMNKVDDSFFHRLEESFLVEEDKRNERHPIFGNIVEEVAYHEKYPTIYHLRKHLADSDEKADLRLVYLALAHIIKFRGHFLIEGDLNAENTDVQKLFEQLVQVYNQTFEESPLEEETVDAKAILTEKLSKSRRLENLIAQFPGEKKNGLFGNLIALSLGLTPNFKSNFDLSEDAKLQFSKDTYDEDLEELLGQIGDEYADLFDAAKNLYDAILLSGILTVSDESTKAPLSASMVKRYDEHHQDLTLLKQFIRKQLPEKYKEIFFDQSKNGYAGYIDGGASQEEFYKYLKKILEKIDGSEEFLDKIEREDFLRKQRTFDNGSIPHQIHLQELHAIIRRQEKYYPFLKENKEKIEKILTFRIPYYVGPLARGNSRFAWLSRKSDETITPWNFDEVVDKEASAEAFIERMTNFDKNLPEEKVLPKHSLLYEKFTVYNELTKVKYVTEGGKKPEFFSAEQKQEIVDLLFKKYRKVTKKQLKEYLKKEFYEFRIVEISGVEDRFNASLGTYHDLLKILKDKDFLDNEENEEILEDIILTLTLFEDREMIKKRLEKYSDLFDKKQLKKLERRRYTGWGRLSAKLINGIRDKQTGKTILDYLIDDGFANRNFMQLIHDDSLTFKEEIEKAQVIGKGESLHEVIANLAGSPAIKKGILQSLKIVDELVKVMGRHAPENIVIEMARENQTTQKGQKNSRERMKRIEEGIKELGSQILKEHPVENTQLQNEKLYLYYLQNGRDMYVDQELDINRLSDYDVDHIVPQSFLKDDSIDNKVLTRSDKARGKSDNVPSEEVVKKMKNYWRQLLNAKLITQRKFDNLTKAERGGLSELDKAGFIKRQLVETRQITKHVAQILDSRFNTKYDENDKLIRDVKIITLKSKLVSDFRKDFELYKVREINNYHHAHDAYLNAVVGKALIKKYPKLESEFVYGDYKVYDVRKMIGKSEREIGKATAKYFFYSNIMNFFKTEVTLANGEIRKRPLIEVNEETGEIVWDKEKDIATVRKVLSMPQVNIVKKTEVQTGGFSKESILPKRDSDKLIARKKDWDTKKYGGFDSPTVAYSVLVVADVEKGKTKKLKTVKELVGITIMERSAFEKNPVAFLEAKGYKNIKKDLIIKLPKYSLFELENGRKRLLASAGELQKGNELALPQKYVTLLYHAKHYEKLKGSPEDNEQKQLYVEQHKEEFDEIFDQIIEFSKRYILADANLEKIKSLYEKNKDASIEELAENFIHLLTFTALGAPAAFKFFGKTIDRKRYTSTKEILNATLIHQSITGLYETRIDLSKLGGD
In words: cell_activity; +++; HEK293T; PAM not stated. The method, boiled down: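 Editing activity was scored as the fraction of GFP+ cells on day 4 by flow cytometry. BFP-expressing HEK293T cells (250,000) received by nucleofection 200 ng plasmid for the RT-Cas fusion protein and 200 ng template RNA plasmid designed to convert BFP to GFP.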

B1: BFP-to-GFP template RNA ; BFP reporter protospacer (ssRNA ; dsDNA)
RNA: GCCGAAGCACUGCACGCCGUGUUUUAGAGCUAGAAAUAGCAAGUUAAAAUAAGGCUAGUCCGUUAUCAACUUGAAAAAGUGGCACCGAGUCGGUGCACCCUGACGUACGGCGUGCAGUGCUU
DNA 1: GCCGAAGCACTGCACGCCGT
DNA 2: ACGGCGTGCAGTGCTTCGGC
For the molecule B1, the activity is ≥ 100 % of reference.
